Laboratory results: patent US6136558A, “Heregulin variants” (Genentech, Inc., priority 1998, dated 2000)

How the values were obtained:
[1] = biological target: ErbB-3 receptor-Ig fusion (human) (UniProt P21860); experiment: displacement of 125I-HRG-β1 177-244 from ErbB-3-Ig
[2] = biological target: ErbB-4 receptor-Ig fusion (human) (UniProt Q15303); experiment: displacement of 125I-HRG-β1 177-244 from ErbB-4-Ig
[3] = biological target: ErbB-3 receptor-Ig fusion (human) (UniProt P21860); experiment: phage ELISA, ratio to wild-type HRG8 phage

B1: recombinantly produced HRG-β1 177-244 (ligand)
chain: SHLVKCAEKEKTFCVNGGECFMVKDLSNPSRYLCKCPNEFTGDRCQNYVMASFYKHLGIEFMEAEELY
[1]
  EC50: 9 nM
[2]
  EC50: 14.8 nM

B2: D1 (phage) (ligand)
chain: SHLVKCAEKEKTFCVNGGECYKVRILSNPSRYLCKCPNEFTGDRCQNYVIAS
[3]
  EC50(wt)/EC50(mut): 11

B3: HRG59 (phage) (ligand)
chain: SHLVKCAEKEKTFCVNGGECYRVKTLSNPSRYLCKCPNEFTGDRCQNYVIAS
[3]
  EC50(wt)/EC50(mut): 26

B4: A1 (phage) (ligand)
chain: WRLVPCAEKEKTFCVNGGECFMVKDLSNPSRYLCKCPNEFTGDRCQNYVMAS
[3]
  EC50(wt)/EC50(mut): 0.55

B5: A4 (phage) (ligand)
chain: WSLVKCAEKEKTFCVNGGECFMVKDLSNPSRYLCKCPNEFTGDRCQNYVMAS
[3]
  EC50(wt)/EC50(mut): < 0.3

B6: D10 (phage) (ligand)
chain: SHLVKCAEKEKTFCVNGGECYMVKTLSNPSRYLCKCPNEFTGDRCQNYVMAS
[3]
  EC50(wt)/EC50(mut): 2.1

B7: I1 (phage) (ligand)
chain: SHLVKCAEKEKTFCVNGGECFMVKDLSNPSRYLCKCPNEFTGDRCQWYVIAS
[3]
  EC50(wt)/EC50(mut): 13

B8: A2 (phage) (ligand)
chain: WSLQPCAEKEKTFCVNGGECFMVKDLSNPSRYLCKCPNEFTGDRCQNYVMAS
[3]
  EC50(wt)/EC50(mut): 0.87

B9: H5 (phage) (ligand)
chain: SHLVKCAEKEKTFCVNGGECFMVKDLSNPSRYLCKCPNEFTGERCQNYVMAS
[3]
  EC50(wt)/EC50(mut): 1.5

B10: Trx-HRG-β1 146-244 S177A fusion (ligand)
chain: DDDDKAYVSSESPIRISVSTEGANTSSSTSTSTTGTAHLVKCAEKEKTFCVNGGECFMVKDLSNPSRYLCKCPNEFTGDRCQNYVMASFYKHLGIEFMEAEELY
[1]
  EC50: 129 nM
[2]
  EC50: 54.6 nM

B11: Trx-HRG-β1 146-244 Y224A fusion (ligand)
chain: DDDDKAYVSSESPIRISVSTEGANTSSSTSTSTTGTSHLVKCAEKEKTFCVNGGECFMVKDLSNPSRYLCKCPNEFTGDRCQNAVMASFYKHLGIEFMEAEELY
[1]
  EC50: 339 nM
[2]
  EC50: 24.5 nM

B12: Trx-HRG-β1 146-244 E215A fusion (ligand)
chain: DDDDKAYVSSESPIRISVSTEGANTSSSTSTSTTGTSHLVKCAEKEKTFCVNGGECFMVKDLSNPSRYLCKCPNAFTGDRCQNYVMASFYKHLGIEFMEAEELY
[1]
  EC50: 156 nM
[2]
  EC50: 104 nM

B13: Trx-HRG-β1 146-244 G194A fusion (ligand)
chain: DDDDKAYVSSESPIRISVSTEGANTSSSTSTSTTGTSHLVKCAEKEKTFCVNGAECFMVKDLSNPSRYLCKCPNEFTGDRCQNYVMASFYKHLGIEFMEAEELY
[1]
  EC50: 1210 nM
[2]
  EC50: 275 nM

B14: Trx-HRG-β1 146-244 G218A fusion (ligand)
chain: DDDDKAYVSSESPIRISVSTEGANTSSSTSTSTTGTSHLVKCAEKEKTFCVNGGECFMVKDLSNPSRYLCKCPNEFTADRCQNYVMASFYKHLGIEFMEAEELY
[1]
  EC50: 668 nM
[2]
  EC50: 608 nM

B15: Trx-HRG-β1 146-244 L179A fusion (ligand)
chain: DDDDKAYVSSESPIRISVSTEGANTSSSTSTSTTGTSHAVKCAEKEKTFCVNGGECFMVKDLSNPSRYLCKCPNEFTGDRCQNYVMASFYKHLGIEFMEAEELY
[1]
  EC50: 394 nM
[2]
  EC50: 51.7 nM

B16: Trx-HRG-β1 146-244 H178A fusion (ligand)
chain: DDDDKAYVSSESPIRISVSTEGANTSSSTSTSTTGTSALVKCAEKEKTFCVNGGECFMVKDLSNPSRYLCKCPNEFTGDRCQNYVMASFYKHLGIEFMEAEELY
[1]
  EC50: 476 nM
[2]
  EC50: 138 nM

B17: Trx-HRG-β1 146-244 R207A fusion (ligand)
chain: DDDDKAYVSSESPIRISVSTEGANTSSSTSTSTTGTSHLVKCAEKEKTFCVNGGECFMVKDLSNPSAYLCKCPNEFTGDRCQNYVMASFYKHLGIEFMEAEELY
[1]
  EC50: 245 nM
[2]
  EC50: 24.3 nM

B18: Trx-HRG-β1 146-244 G193A fusion (ligand)
chain: DDDDKAYVSSESPIRISVSTEGANTSSSTSTSTTGTSHLVKCAEKEKTFCVNAGECFMVKDLSNPSRYLCKCPNEFTGDRCQNYVMASFYKHLGIEFMEAEELY
[1]
  EC50: 26.9 nM
[2]
  EC50: 76.3 nM

B19: Trx-HRG-β1 146-244 K211A fusion (ligand)
chain: DDDDKAYVSSESPIRISVSTEGANTSSSTSTSTTGTSHLVKCAEKEKTFCVNGGECFMVKDLSNPSRYLCACPNEFTGDRCQNYVMASFYKHLGIEFMEAEELY
[1]
  EC50: 248 nM
[2]
  EC50: 124 nM

B20: Trx-HRG-β1 146-244 E195A fusion (ligand)
chain: DDDDKAYVSSESPIRISVSTEGANTSSSTSTSTTGTSHLVKCAEKEKTFCVNGGACFMVKDLSNPSRYLCKCPNEFTGDRCQNYVMASFYKHLGIEFMEAEELY
[1]
  EC50: 42 nM
[2]
  EC50: 13.2 nM

B21: Trx-HRG-β1 146-244 N192A fusion (ligand)
chain: DDDDKAYVSSESPIRISVSTEGANTSSSTSTSTTGTSHLVKCAEKEKTFCVAGGECFMVKDLSNPSRYLCKCPNEFTGDRCQNYVMASFYKHLGIEFMEAEELY
[1]
  EC50: 1640 nM
[2]
  EC50: 696 nM

B22: Trx-HRG-β1 146-244 K200A fusion (ligand)
chain: DDDDKAYVSSESPIRISVSTEGANTSSSTSTSTTGTSHLVKCAEKEKTFCVNGGECFMVADLSNPSRYLCKCPNEFTGDRCQNYVMASFYKHLGIEFMEAEELY
[1]
  EC50: 45.4 nM
[2]
  EC50: 16.9 nM

B23: Trx-HRG-β1 146-244 P205A fusion (ligand)
chain: DDDDKAYVSSESPIRISVSTEGANTSSSTSTSTTGTSHLVKCAEKEKTFCVNGGECFMVKDLSNASRYLCKCPNEFTGDRCQNYVMASFYKHLGIEFMEAEELY
[1]
  EC50: 39.5 nM
[2]
  EC50: 34.2 nM

B24: Trx-HRG-β1 146-244 F189A fusion (ligand)
chain: DDDDKAYVSSESPIRISVSTEGANTSSSTSTSTTGTSHLVKCAEKEKTACVNGGECFMVKDLSNPSRYLCKCPNEFTGDRCQNYVMASFYKHLGIEFMEAEELY
[1]
  EC50: 975 nM
[2]
  EC50: 565 nM

B25: Trx-HRG-β1 146-244 V199A fusion (ligand)
chain: DDDDKAYVSSESPIRISVSTEGANTSSSTSTSTTGTSHLVKCAEKEKTFCVNGGECFMAKDLSNPSRYLCKCPNEFTGDRCQNYVMASFYKHLGIEFMEAEELY
[2]
  EC50: 246 nM

B26: Trx-HRG-β1 146-244 T217A fusion (ligand)
chain: DDDDKAYVSSESPIRISVSTEGANTSSSTSTSTTGTSHLVKCAEKEKTFCVNGGECFMVKDLSNPSRYLCKCPNEFAGDRCQNYVMASFYKHLGIEFMEAEELY
[1]
  EC50: 145 nM
[2]
  EC50: 32.7 nM

B27: Trx-HRG-β1 146-244 F216A fusion (ligand)
chain: DDDDKAYVSSESPIRISVSTEGANTSSSTSTSTTGTSHLVKCAEKEKTFCVNGGECFMVKDLSNPSRYLCKCPNEATGDRCQNYVMASFYKHLGIEFMEAEELY
[1]
  EC50: 2550 nM
[2]
  EC50: 173 nM

B28: HRG54 (phage) (ligand)
chain: SHLVKCGEEREGFCVNGGECFMVKDYGYLMCKCPNEFTGDRCQNYVMAS
[3]
  EC50(wt)/EC50(mut): 12

B29: HRG61 (phage) (ligand)
chain: SHLVKCGEEREGFCVNGGECFMVKDYGYLMCKCPNEFTGDRCQNYVIAS
[3]
  EC50(wt)/EC50(mut): 29

B30: HRG62 (phage) (ligand)
chain: SHLVKCGEEREGFCVNGGECYRVKTYGYLMCKCPNEFTGDRCQNYVIAS
[3]
  EC50(wt)/EC50(mut): 32

B31: HRG55 (phage) (ligand)
chain: SHLVKCGEEREGFCVNGGECYRVKTYGYLMCKCPNEFTGDRCQNYVMAS
[3]
  EC50(wt)/EC50(mut): 13

B32: HRG63 (phage) (ligand)
chain: SHLVKCAEKEKTFCVNGGECFMVKDPSRYLCKCPNEFTGDRCQNYVMAS
[3]
  EC50(wt)/EC50(mut): 1.1

B33: E3 (phage) (ligand)
chain: SHLVKCAEKEKTFCVNGGECFMVKDYRYRMCKCPNEFTGDRCQNYVIAS
[3]
  EC50(wt)/EC50(mut): 16

B34: HRG48 (phage) (ligand)
chain: SHLVKCAEKEKTFCVNGGECFMVKDYGYLMCKCPNEFTGDRCQNYVIAS
[3]
  EC50(wt)/EC50(mut): 49

B35: HRG57 (phage) (ligand)
chain: SHLVKCAEKEKTFCVNGGECYRVKTYGYLMCKCPNEFTGDRCQNYVMAS
[3]
  EC50(wt)/EC50(mut): 24

B36: HRG71 (phage) (ligand)
chain: SHLVKCAEKEKTFCVNGGECYRVKTYGYLMCKCPNEFTGDRCQHYVIAS
[3]
  EC50(wt)/EC50(mut): 79

B37: B5 (phage) (ligand)
chain: SHLVKCGWDREGFCVNGGECFMVKDLSNPSRYLCKCPNEFTGDRCQNYVIAS
[3]
  EC50(wt)/EC50(mut): 26

B38: HRG37 (phage) (ligand)
chain: WELVPCGWDREGFCVNGGECFMVKDLSNPSRYLCKCPNEFTGDRCQNYVIAS
[3]
  EC50(wt)/EC50(mut): 13

B39: B10 (phage) (ligand)
chain: SHLVKCDKSREGFCVNGGECFMVKDLSNPSRYLCKCPNEFTGDRCQNYVIAS
[3]
  EC50(wt)/EC50(mut): 9.3

B40: HRG60 (phage) (ligand)
chain: SHLVKCGEEREGFCVNGGECYRVKTLSNPSRYLCKCPNEFTGDRCQNYVIAS
[3]
  EC50(wt)/EC50(mut): 63

B41: HRG56 (phage) (ligand)
chain: SHLVKCGEEREGFCVNGGECFMVKDLSNPSRYLCKCPNEFTGDRCQNYVIAS
[3]
  EC50(wt)/EC50(mut): 31

B42: HRG53 (phage) (ligand)
chain: SHLVKCGEEREGFCVNGGECYRVKTLSNPSRYLCKCPNEFTGDRCQNYVMAS
[3]
  EC50(wt)/EC50(mut): 26
